Results: patent publication US20240010722A1 (published 2024)

T1: human MAdCAM (human, UniProt Q13477 19-317, limits assumed)
T1 construct: also called huMAdCAM; human MAdCAM-1
T1 sequence (looked up): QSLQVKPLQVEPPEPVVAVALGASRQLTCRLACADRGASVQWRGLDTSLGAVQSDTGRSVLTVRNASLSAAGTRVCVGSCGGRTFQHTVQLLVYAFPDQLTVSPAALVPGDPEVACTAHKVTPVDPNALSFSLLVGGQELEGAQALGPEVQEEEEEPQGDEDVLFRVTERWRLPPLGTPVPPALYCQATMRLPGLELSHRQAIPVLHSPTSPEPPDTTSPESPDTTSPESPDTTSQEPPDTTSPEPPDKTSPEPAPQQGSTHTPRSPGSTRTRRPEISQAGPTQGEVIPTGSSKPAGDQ


target: T1, human MAdCAM; test: BLI (Octet), binder on AHC tips
Outline: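 After 20 minutes of equilibration in assay buffer, anti-human IgG Fc biosensors on an Octet96 RED were loaded for 240 s with test article at 10 μg/mL in assay buffer. Association with MAdCAM-1, a seven-point serial dilution from 200 nM to 3.13 nM, ran for 120 s, and dissociation in assay buffer ran for another 120 s. A global one-to-one fit in the Octet data analysis software gave the kinetic rates and dissociation constant.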

| Kd [nM] | koff [s⁻¹] | kon [M⁻¹ s⁻¹] | Binder | binding result |
| --- | --- | --- | --- | --- |
| 159 | 0.0725 | 455000 | PMAB9 (bispecific antibody, human IgG1, kappa) heavy: EVQLLESGGGLVQPGGSLRLSCAASGFTFSNSDMSWVRQAPGKGLEWVSGITISGGSTYYADSVKGRFTISRDNSKNTLYLQMNSLRAEDTAVYYCARGRGGSGWLDYWGQGTLVTVSSASTKGPSVFPLAPSSKSTSGGTAALGCLVKDYFPEPVTVSWNSGALTSGVHTFPAVLQSSGLYSLSSVVTVPSSSLGTQTYICNVNHKPSNTKVDKKVEPKSCDKTHTCPPCPAPEAAGAPSVFLFPPKPKDTLMISRTPEVTCVVVDVSHEDPEVKFNWYVDGVEVHNAKTKPREEQYNSTYRVVSVLTVLHQDWLNGKEYKCKVSNKALPAPIEKTISKAKGQPREPQVYTLPPSREEMTKNQVSLTCLVKGFYPSDIAVEWESNGQPENNYKTTPPVLDSDGSFFLYSKLTVDKSRWQQGNVFSCSVMHEALHNHYTQKSLSLSPGGGGGSGGGGSGGGGSEVQLLESGGGLVQPGGSLRLSCAASGFTFSSYWMHWVRQAPGKGLEWISAISGSGGSTYYADSVKGRFTISRDNSKNTLYLQMNSLRAEDTAVYYCARDRPYYYYMDVWGKGTTVTVSSGGGGSGGGGSGGGGSGGGGSDIQMTQSPSSLSASVGDRVTITCRASQSISRSLAWYQQKPGKAPKLLIYAASSLQSGVPSRFSGSGSGTDFTLTISSLQPEDFATYYCQQYKSYPVTFGQGTKVEIK light: not shown | – |
| 146 | 0.0967 | 662000 | PMAB10 (bispecific antibody, human IgG1, kappa) heavy: EVQLLESGGGLVQPGGSLRLSCAASGFTFSNSDMSWVRQAPGKGLEWVSGITISGGSTYYADSVKGRFTISRDNSKNTLYLQMNSLRAEDTAVYYCARGRGGSGWLDYWGQGTLVTVSSASTKGPSVFPLAPSSKSTSGGTAALGCLVKDYFPEPVTVSWNSGALTSGVHTFPAVLQSSGLYSLSSVVTVPSSSLGTQTYICNVNHKPSNTKVDKKVEPKSCDKTHTCPPCPAPEAAGAPSVFLFPPKPKDTLMISRTPEVTCVVVDVSHEDPEVKFNWYVDGVEVHNAKTKPREEQYNSTYRVVSVLTVLHQDWLNGKEYKCKVSNKALPAPIEKTISKAKGQPREPQVYTLPPSREEMTKNQVSLTCLVKGFYPSDIAVEWESNGQPENNYKTTPPVLDSDGSFFLYSKLTVDKSRWQQGNVFSCSVMHEALHNHYTQKSLSLSPGGGGGSGGGGSGGGGSEVQLLESGGGLVQPGGSLRLSCAASGFTFSSYWMHWVRQAPGKGLEWVSAISGSGGSTYYADSVKGRFTISRDNSKNTLYLQMNSLRAEDTAVYYCARDRPYGYYMDVWGKGTTVTVSSGGGGSGGGGSGGGGSGGGGSDIQMTQSPSSLSASVGDRVTITCRASQSISSSLAWYQQKPGKAPKLLIYAASSLQSGVPSRFSGSGSGTDFTLTISSLQPEDFATYYCQQYKSYPVTFGQGTKVEIK light: not shown | – |
| – | – | – | PMAB21 (bispecific antibody, human IgG1, kappa) heavy: EVQLLESGGGLVQPGGSLRLSCAASGFTFSNSDMSWVRQAPGKGLEWVSGITISGGSTYYADSVKGRFTISRDNSKNTLYLQMNSLRAEDTAVYYCARGRGGSGWLDYWGQGTLVTVSSASTKGPSVFPLAPSSKSTSGGTAALGCLVKDYFPEPVTVSWNSGALTSGVHTFPAVLQSSGLYSLSSVVTVPSSSLGTQTYICNVNHKPSNTKVDKKVEPKSCDKTHTCPPCPAPEAAGAPSVFLFPPKPKDTLMISRTPEVTCVVVDVSHEDPEVKFNWYVDGVEVHNAKTKPREEQYNSTYRVVSVLTVLHQDWLNGKEYKCKVSNKALPAPIEKTISKAKGQPREPQVYTLPPSREEMTKNQVSLTCLVKGFYPSDIAVEWESNGQPENNYKTTPPVLDSDGSFFLYSKLTVDKSRWQQGNVFSCSVMHEALHNHYTQKSLSLSPGGGGGSGGGGSGGGGSEVQLLESGGGLVQPGGSLRLSCAASGFTFSDFAMHWVRQAPGKGLEWISYISGDSGYTNYADSVKGRFTISRDNSKNTLYLQMNSLRAEDTAVYYCARDRPYYYYMDVWGKGTTVTVSSGGGGSGGGGSGGGGSGGGGSDIQMTQSPSSLSASVGDRVTITCRASQSVSRSLAWYQQKPGKAPKLLIYAASSLQSGVPSRFSGSGSGTDFTLTISSLQPEDFATYYCQQYKSYPVTFGQGTKVEIK light: not shown | no binding (tested: 300 nM (top of the dilution series)) |
| 63.3 | 0.0464 | 733000 | PMAB12 (bispecific antibody, human IgG1, kappa) heavy: EVQLLESGGGLVQPGGSLRLSCAASGFTFSNSDMSWVRQAPGKGLEWVSGITISGGSTYYADSVKGRFTISRDNSKNTLYLQMNSLRAEDTAVYYCARGRGGSGWLDYWGQGTLVTVSSASTKGPSVFPLAPSSKSTSGGTAALGCLVKDYFPEPVTVSWNSGALTSGVHTFPAVLQSSGLYSLSSVVTVPSSSLGTQTYICNVNHKPSNTKVDKKVEPKSCDKTHTCPPCPAPEAAGAPSVFLFPPKPKDTLMISRTPEVTCVVVDVSHEDPEVKFNWYVDGVEVHNAKTKPREEQYNSTYRVVSVLTVLHQDWLNGKEYKCKVSNKALPAPIEKTISKAKGQPREPQVYTLPPSREEMTKNQVSLTCLVKGFYPSDIAVEWESNGQPENNYKTTPPVLDSDGSFFLYSKLTVDKSRWQQGNVFSCSVMHEALHNHYTQKSLSLSPGGGGGSGGGGSGGGGSEVQLLESGGGLVQPGGSLRLSCAASGFTFSSYWMHWVRQAPGKGLEWVSAISGSGGSTYYADSVKGRFTISRDNSKNTLYLQMNSLRAEDTAVYYCARDRPYGYYMDVWGKGTTVTVSSGGGGSGGGGSGGGGSGGGGSDIQMTQSPSSLSASVGDRVTITCRASQSISRSLAWYQQKPGKAPKLLIYAASSLQSGVPSRFSGSGSGTDFTLTISSLQPEDFATYYCQQYKSYPVTFGQGTKVEIK light: not shown | – |
| – | – | – | PMAB38 (bispecific antibody, human IgG1, kappa) heavy: EVQLLESGGGLVQPGGSLRLSCAASGFTFSNSDMSWVRQAPGKGLEWVSGITISGGSTYYADSVKGRFTISRDNSKNTLYLQMNSLRAEDTAVYYCARGRGGSGWLDYWGQGTLVTVSSASTKGPSVFPLAPSSKSTSGGTAALGCLVKDYFPEPVTVSWNSGALTSGVHTFPAVLQSSGLYSLSSVVTVPSSSLGTQTYICNVNHKPSNTKVDKKVEPKSCDKTHTCPPCPAPEAAGAPSVFLFPPKPKDTLMISRTPEVTCVVVDVSHEDPEVKFNWYVDGVEVHNAKTKPREEQYNSTYRVVSVLTVLHQDWLNGKEYKCKVSNKALPAPIEKTISKAKGQPREPQVYTLPPSREEMTKNQVSLTCLVKGFYPSDIAVEWESNGQPENNYKTTPPVLDSDGSFFLYSKLTVDKSRWQQGNVFSCSVMHEALHNHYTQKSLSLSPGGGGGSGGGGSGGGGSEVQLLESGGGLVQPGGSLRLSCAASGFTFSDFWMHWVRQAPGKGLEWISYISGDSGYTNYADSVKGRFTISRDNSKNTLYLQMNSLRAEDTAVYYCARDRPYYYYMDVWGKGTTVTVSSGGGGSGGGGSGGGGSGGGGSDIQMTQSPSSLSASVGDRVTITCRASQSVSRYLAWYQQKPGKAPKLLIYAASSLQSGVPSRFSGSGSGTDFTLTISSLQPEDFATYYCQQYKSYPVTFGQGTKVEIK light: not shown | no binding (tested: 200 nM (top of the dilution series)) |
| 132 | 0.0717 | 542000 | PMAB13 (bispecific antibody, human IgG1, kappa) heavy: EVQLLESGGGLVQPGGSLRLSCAASGFTFSNSDMSWVRQAPGKGLEWVSGITISGGSTYYADSVKGRFTISRDNSKNTLYLQMNSLRAEDTAVYYCARGRGGSGWLDYWGQGTLVTVSSASTKGPSVFPLAPSSKSTSGGTAALGCLVKDYFPEPVTVSWNSGALTSGVHTFPAVLQSSGLYSLSSVVTVPSSSLGTQTYICNVNHKPSNTKVDKKVEPKSCDKTHTCPPCPAPEAAGAPSVFLFPPKPKDTLMISRTPEVTCVVVDVSHEDPEVKFNWYVDGVEVHNAKTKPREEQYNSTYRVVSVLTVLHQDWLNGKEYKCKVSNKALPAPIEKTISKAKGQPREPQVYTLPPSREEMTKNQVSLTCLVKGFYPSDIAVEWESNGQPENNYKTTPPVLDSDGSFFLYSKLTVDKSRWQQGNVFSCSVMHEALHNHYTQKSLSLSPGGGGGSGGGGSGGGGSEVQLLESGGGLVQPGGSLRLSCAASGFTFSSYWMHWVRQAPGKGLEWVSAISGSGGSTYYADSVKGRFTISRDNSKNTLYLQMNSLRAEDTAVYYCARDRPYYYYMDVWGKGTTVTVSSGGGGSGGGGSGGGGSGGGGSDIQMTQSPSSLSASVGDRVTITCRASQSISRSLAWYQQKPGKAPKLLIYAASSLQSGVPSRFSGSGSGTDFTLTISSLQPEDFATYYCQQYKSYPVTFGQGTKVEIK light: not shown | – |
| 466 | 0.195 | 419000 | PMAB11 (bispecific antibody, human IgG1, kappa) heavy: EVQLLESGGGLVQPGGSLRLSCAASGFTFSNSDMSWVRQAPGKGLEWVSGITISGGSTYYADSVKGRFTISRDNSKNTLYLQMNSLRAEDTAVYYCARGRGGSGWLDYWGQGTLVTVSSASTKGPSVFPLAPSSKSTSGGTAALGCLVKDYFPEPVTVSWNSGALTSGVHTFPAVLQSSGLYSLSSVVTVPSSSLGTQTYICNVNHKPSNTKVDKKVEPKSCDKTHTCPPCPAPEAAGAPSVFLFPPKPKDTLMISRTPEVTCVVVDVSHEDPEVKFNWYVDGVEVHNAKTKPREEQYNSTYRVVSVLTVLHQDWLNGKEYKCKVSNKALPAPIEKTISKAKGQPREPQVYTLPPSREEMTKNQVSLTCLVKGFYPSDIAVEWESNGQPENNYKTTPPVLDSDGSFFLYSKLTVDKSRWQQGNVFSCSVMHEALHNHYTQKSLSLSPGGGGGSGGGGSGGGGSEVQLLESGGGLVQPGGSLRLSCAASGFTFSSYWMHWVRQAPGKGLEWVSAISGSGGSTYYADSVKGRFTISRDNSKNTLYLQMNSLRAEDTAVYYCARDRPYYYYMDVWGKGTTVTVSSGGGGSGGGGSGGGGSGGGGSDIQMTQSPSSLSASVGDRVTITCRASQSISSSLAWYQQKPGKAPKLLIYAASSLQSGVPSRFSGSGSGTDFTLTISSLQPEDFATYYCQQYKSYPVTFGQGTKVEIK light: not shown | – |
